Data taken from patent US20230143604A1, “QW DOSING OF GIP RECEPTOR AGONIST PEPTIDE COMPOUNDS AND USES THEREOF” (TAKEDA PHARMACEUTICAL COMPANY LIMITED, priority 2020, published 2023).
Starred links: 1 amine or outer side, 2 acyl side, 3 side chain; linkers in the order of their positions; H or OH if unused. Non-standard residues stand in square brackets, D forms with d. Groups on a side chain read outwards from the residue. No end group written: not given here. *: point of attachment. C18 diacid = O=C(O)CCCCCCCCCCCCCCCCC(=O)*; C17 diacid = O=C(O)CCCCCCCCCCCCCCCC(=O)*; γGlu = O=C(O)[C@H](CCC(=O)[*:2])N[*:1]; NMeY = CN[C@@H](Cc1ccc(O)cc1)C(=O)O; AEEA = NCCOCCOCC(=O)O; E1 = not defined here; K1 = not defined here; Aib = CC(C)(N)C(=O)O

T1: full-length human GIPR with an N-terminal FLAG tag (human, UniProt P48546 22-466)
T1 sequence (looked up): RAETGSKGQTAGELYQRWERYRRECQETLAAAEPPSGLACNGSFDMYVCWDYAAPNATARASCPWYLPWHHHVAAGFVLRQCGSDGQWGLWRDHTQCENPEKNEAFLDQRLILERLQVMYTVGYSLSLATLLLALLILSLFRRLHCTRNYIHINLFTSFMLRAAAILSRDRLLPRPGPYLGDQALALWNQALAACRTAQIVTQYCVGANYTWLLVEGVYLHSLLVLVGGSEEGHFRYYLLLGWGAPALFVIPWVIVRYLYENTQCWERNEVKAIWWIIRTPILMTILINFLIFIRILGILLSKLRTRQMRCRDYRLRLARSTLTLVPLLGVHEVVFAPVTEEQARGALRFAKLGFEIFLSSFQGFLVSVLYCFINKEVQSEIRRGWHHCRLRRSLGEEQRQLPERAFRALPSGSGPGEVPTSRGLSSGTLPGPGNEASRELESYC


Experiments:
[1] = molecular target: T1, full-length human GIPR with an …; assay: cell-based or functional assay
[2] = molecular target: full-length human GLP-1R with an N-terminal FLAG tag (human, UniProt P43220 24-463); assay: cell-based or functional assay

Row | Binder | Human GIPR cAMP EC50, HEK293T [1] | Human GLP1R cAMP EC50, HEK293T [2]
1 | YXEGTFISDYSIALDRXAQXDFVEWLLAQRG (N-methyl Tyr 1; Aib at 2,20; Lys(G5-C18 diacid) at 17; C-terminal OH) [Compound No. 115] | 0.0003 nM | 40.7 nM
2 | YXEGTFISDYSIAXDRXAQKDFVEWLLAQRG (N-methyl Tyr 1; Aib at 2,17; Lys(G5-C18 diacid) at 14; 'K1' at 20 and 'E1' at 24 as printed; C-terminal OH) [Compound No. 121] | 0.0005 nM | 89.1 nM
3 | [NMeY][Aib]EGTFISDYSI[Aib]LDR[Aib]AQ[Aib]K([AEEA-AEEA-γGlu-γGlu-C17 diacid])FVNWLLAQSPG-OH (N-terminus assumed; SMILES CC[C@H](C)[C@H](NC(=O)[C@H](Cc1ccccc1)NC(=O)[C@@H](NC(=O)CNC(=O)[C@H](CCC(=O)O)NC(=O)C(C)(C)NC(=O)[C@H](Cc1ccc(O)cc1)NC)[C@@H](C)O)C(=O)N[C@@H](CO)C(=O)N[C@@H](CC(=O)O)C(=O)N[C@@H](Cc1ccc(O)cc1)C(=O)N[C@@H](CO)C(=O)N[C@H](C(=O)NC(C)(C)C(=O)N[C@@H](CC(C)C)C(=O)N[C@@H](CC(=O)O)C(=O)N[C@@H](CCCNC(=N)N)C(=O)NC(C)(C)C(=O)N[C@@H](C)C(=O)N[C@@H](CCC(N)=O)C(=O)NC(C)(C)C(=O)N[C@@H](CCCCNC(=O)COCCOCCNC(=O)COCCOCCNC(=O)CC[C@H](NC(=O)CC[C@H](NC(=O)CCCCCCCCCCCCCCCC(=O)O)C(=O)O)C(=O)O)C(=O)N[C@@H](Cc1ccccc1)C(=O)N[C@H](C(=O)N[C@@H](CC(N)=O)C(=O)N[C@@H](Cc1c[nH]c2ccccc12)C(=O)N[C@@H](CC(C)C)C(=O)N[C@@H](CC(C)C)C(=O)N[C@@H](C)C(=O)N[C@@H](CCC(N)=O)C(=O)N[C@@H](CO)C(=O)N1CCC[C@H]1C(=O)NCC(=O)O)C(C)C)[C@@H](C)CC) [Compound No. 126] | 0.0004 nM | 30.9 nM
4 | YXEGTFISDYSIAXDRXAQXDFVNWLLAQSPG (N-methyl Tyr 1; Aib at 2,17,20; Lys(G5-C20 diacid) at 14; C-terminal OH) [Compound No. 111] | 0.0001 nM | 14.1 nM
5 | YXEGTFISDYSIAXDRXAQXDFVEWLLAQSPG (N-methyl Tyr 1; Aib at 2,17,20; Lys(G5-C18 diacid) at 14; C-terminal OH) [Compound No. 118] | 0.0007 nM | 91.2 nM
6 | YXEGTFISDYSIAXDRXAQKDFVEWLLAQSPG (N-methyl Tyr 1; Aib at 2,17; Lys(G5-C18 diacid) at 14; 'K1' at 20 and 'E1' at 24 as printed; C-terminal OH) [Compound No. 124] | 0.0003 nM | 123 nM
7 | YXEGTFISDYSIAXDRXAQXNFVNWLLAQSPG (N-methyl Tyr 1; Aib at 2,17,20; Lys(G5-C18 diacid) at 14; C-terminal OH) [Compound No. 114] | 0.0001 nM | 11.7 nM
8 | YXEGTFISDYSIAXDRXAQRDFVEWLLAQSPG (N-methyl Tyr 1; Aib at 2,17; Lys(G5-C18 diacid) at 14; C-terminal OH) [Compound No. 120] | 0.0003 nM | 15.8 nM
9 | YXEGTFISDYSIALDRXAQXDFVNWLLAQSPG (N-methyl Tyr 1; Aib at 2,20; Lys(G5-C18 diacid) at 17; C-terminal OH) [Compound No. 113] | 0.0003 nM | 13.5 nM
10 | [NMeY][Aib]EGTFISDYSIALDR[Aib]AQ[Aib]K([AEEA-AEEA-γGlu-γGlu-C18 diacid])FVEWLLAQSPG-OH (N-terminus assumed; SMILES CC[C@H](C)[C@H](NC(=O)[C@H](CO)NC(=O)[C@H](Cc1ccc(O)cc1)NC(=O)[C@H](CC(=O)O)NC(=O)[C@H](CO)NC(=O)[C@@H](NC(=O)[C@H](Cc1ccccc1)NC(=O)[C@@H](NC(=O)CNC(=O)[C@H](CCC(=O)O)NC(=O)C(C)(C)NC(=O)[C@H](Cc1ccc(O)cc1)NC)[C@@H](C)O)[C@@H](C)CC)C(=O)N[C@@H](C)C(=O)N[C@@H](CC(C)C)C(=O)N[C@@H](CC(=O)O)C(=O)N[C@@H](CCCNC(=N)N)C(=O)NC(C)(C)C(=O)N[C@@H](C)C(=O)N[C@@H](CCC(N)=O)C(=O)NC(C)(C)C(=O)N[C@@H](CCCCNC(=O)COCCOCCNC(=O)COCCOCCNC(=O)CC[C@H](NC(=O)CC[C@H](NC(=O)CCCCCCCCCCCCCCCCC(=O)O)C(=O)O)C(=O)O)C(=O)N[C@@H](Cc1ccccc1)C(=O)N[C@H](C(=O)N[C@@H](CCC(=O)O)C(=O)N[C@@H](Cc1c[nH]c2ccccc12)C(=O)N[C@@H](CC(C)C)C(=O)N[C@@H](CC(C)C)C(=O)N[C@@H](C)C(=O)N[C@@H](CCC(N)=O)C(=O)N[C@@H](CO)C(=O)N1CCC[C@H]1C(=O)NCC(=O)O)C(C)C) [Compound No. 119] | 0.0009 nM | 50.1 nM
11 | [NMeY][Aib]EGTFISDYSI[Aib]LDR[Aib]AQ[Aib]K([AEEA-AEEA-γGlu-γGlu-C18 diacid])FVEWLLAQKG-OH (N-terminus assumed; SMILES CC[C@H](C)[C@H](NC(=O)[C@H](Cc1ccccc1)NC(=O)[C@@H](NC(=O)CNC(=O)[C@H](CCC(=O)O)NC(=O)C(C)(C)NC(=O)[C@H](Cc1ccc(O)cc1)NC)[C@@H](C)O)C(=O)N[C@@H](CO)C(=O)N[C@@H](CC(=O)O)C(=O)N[C@@H](Cc1ccc(O)cc1)C(=O)N[C@@H](CO)C(=O)N[C@H](C(=O)NC(C)(C)C(=O)N[C@@H](CC(C)C)C(=O)N[C@@H](CC(=O)O)C(=O)N[C@@H](CCCNC(=N)N)C(=O)NC(C)(C)C(=O)N[C@@H](C)C(=O)N[C@@H](CCC(N)=O)C(=O)NC(C)(C)C(=O)N[C@@H](CCCCNC(=O)COCCOCCNC(=O)COCCOCCNC(=O)CC[C@H](NC(=O)CC[C@H](NC(=O)CCCCCCCCCCCCCCCCC(=O)O)C(=O)O)C(=O)O)C(=O)N[C@@H](Cc1ccccc1)C(=O)N[C@H](C(=O)N[C@@H](CCC(=O)O)C(=O)N[C@@H](Cc1c[nH]c2ccccc12)C(=O)N[C@@H](CC(C)C)C(=O)N[C@@H](CC(C)C)C(=O)N[C@@H](C)C(=O)N[C@@H](CCC(N)=O)C(=O)N[C@@H](CCCCN)C(=O)NCC(=O)O)C(C)C)[C@@H](C)CC) [Compound No. 110] | 0.0003 nM | 100 nM
12 | [NMeY][Aib]EGTFISDYSIALDR[Aib]AQ[Aib]K([GGPAPAPgE-C18 diacid])FVNWLLAQSPG-OH [Compound No. 117] | 0.002 nM | 44.7 nM
13 | [NMeY][Aib]EGTFISDYSIALDR[Aib]AQ[Aib]K([AEEA-AEEA-γGlu-γGlu-C17 diacid])FVNWLLAQSPG-OH (N-terminus assumed; SMILES CC[C@H](C)[C@H](NC(=O)[C@H](CO)NC(=O)[C@H](Cc1ccc(O)cc1)NC(=O)[C@H](CC(=O)O)NC(=O)[C@H](CO)NC(=O)[C@@H](NC(=O)[C@H](Cc1ccccc1)NC(=O)[C@@H](NC(=O)CNC(=O)[C@H](CCC(=O)O)NC(=O)C(C)(C)NC(=O)[C@H](Cc1ccc(O)cc1)NC)[C@@H](C)O)[C@@H](C)CC)C(=O)N[C@@H](C)C(=O)N[C@@H](CC(C)C)C(=O)N[C@@H](CC(=O)O)C(=O)N[C@@H](CCCNC(=N)N)C(=O)NC(C)(C)C(=O)N[C@@H](C)C(=O)N[C@@H](CCC(N)=O)C(=O)NC(C)(C)C(=O)N[C@@H](CCCCNC(=O)COCCOCCNC(=O)COCCOCCNC(=O)CC[C@H](NC(=O)CC[C@H](NC(=O)CCCCCCCCCCCCCCCC(=O)O)C(=O)O)C(=O)O)C(=O)N[C@@H](Cc1ccccc1)C(=O)N[C@H](C(=O)N[C@@H](CC(N)=O)C(=O)N[C@@H](Cc1c[nH]c2ccccc12)C(=O)N[C@@H](CC(C)C)C(=O)N[C@@H](CC(C)C)C(=O)N[C@@H](C)C(=O)N[C@@H](CCC(N)=O)C(=O)N[C@@H](CO)C(=O)N1CCC[C@H]1C(=O)NCC(=O)O)C(C)C) [Compound No. 125] | 0.0005 nM | 20 nM
14 | [NMeY][Aib]EGTFISDYSIA[K1]DRA[E1]Q[Aib]K([AEEA-AEEA-γGlu-γGlu-C18 diacid])FVNWLLAQRG-OH (reading uncertain; also: 'K1' at 14 and 'E1' at 18, not explained) [Compound No. 123] | 0.0005 nM | 74.1 nM
15 | [NMeY][Aib]EGTFISDYSI[K1]LDR[E1]AQ[Aib]K([AEEA-AEEA-γGlu-γGlu-C18 diacid])FVNWLLAQRG-OH (reading uncertain; also: 'K1' at 13 and 'E1' at 17, not explained) [Compound No. 122] | 0.0008 nM | 3.55 nM
